According to patent US20150344570A1 (published 2015):
Numbering of substitutions follows the chain as printed. Names may count otherwise.

Key:
FcgRIIb [1] = target: T1, FcgRIIb (human, UniProt P31994 43-217); test: SPR (Biacore); KD of the variant for FcgRIIaR divided by its KD for FcgRIIb
T1 construct: extracellular domain; Soluble extracellular domain with C-terminal His tag, expressed in FreeStyle293 cells; also called FcγRIIb; 2b; not shown: His tag at the C terminus
T1 sequence (looked up): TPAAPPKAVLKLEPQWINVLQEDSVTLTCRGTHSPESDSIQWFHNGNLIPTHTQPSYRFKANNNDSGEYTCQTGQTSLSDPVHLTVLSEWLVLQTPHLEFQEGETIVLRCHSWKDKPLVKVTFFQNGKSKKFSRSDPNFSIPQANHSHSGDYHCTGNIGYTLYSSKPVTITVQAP

FcgRIIb [2] = target: T1, FcgRIIb; test: SPR (Biacore), antibody captured on chip, FcgR extracellular domain as analyte
FcgRIIaR = target: T2, FcgRIIaR (human, UniProt P12318 34-217); test: as above
T2 construct: extracellular domain; Soluble extracellular domain with C-terminal His tag, expressed in FreeStyle293 cells; also called FcγRIIa R; FcgRIIa type R; not shown: His tag at the C terminus
T2 sequence (looked up): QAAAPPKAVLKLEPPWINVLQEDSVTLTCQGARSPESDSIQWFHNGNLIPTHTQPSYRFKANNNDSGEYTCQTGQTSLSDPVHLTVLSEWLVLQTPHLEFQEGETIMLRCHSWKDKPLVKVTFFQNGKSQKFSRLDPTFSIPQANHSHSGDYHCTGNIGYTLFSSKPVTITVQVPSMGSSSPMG

FcgRIIaH = target: T3, FcgRIIaH (human, UniProt P12318 34-217); test: as above
T3 construct: extracellular domain; Soluble extracellular domain with C-terminal His tag, expressed in FreeStyle293 cells; also called FcγRIIa H; FcgRIIa type H; not shown: His tag at the C terminus
T3 sequence (looked up): T2 sequence (looked up) with R134H

FcγRIIIa [3] = target: T4, FcγRIIIa (human, UniProt P08637 17-208); test: ratio of SPR KDs: KD of GpH7-TA7/GpH7-B78/GpL16-k0 divided by KD of this antibody
T4 construct: extracellular domain; also called FcgRIIIa; CD16A; not shown: His tag attached to the C terminus
Method: (§1) Analysis of interaction between objective antibody and the FcγR was carried out using Biacore T100 (GE Healthcare). HBS-EP+ (GE Healthcare) was used as the running buffer, and the measurement temperature was set to 25° C. Chips produced by immobilizing the antigen peptide by the amine coupling method to a Series S Sencor Chip CM5 (GE Healthcare), or alternatively, chips produced by allowing preliminarily biotinylated antigen peptides to interact with and immobilize onto a Series S Sensor Chip SA (certified) (GE Healthcare) were used. Antibodies of interest were captured onto an antigen peptide-immobilized chip, and allowed to interact to each FcγR diluted with running buffer. To regenerate and repeatedly use the chip, the antibodies captured on the chip were washed off by reacting 10 mM glycine-HCl, pH 1.5.
(§2) Specifically, to calculate association rate constant ka (L/mol/s) and dissociation rate constant kd (1/s), sensorgrams obtained by measurement were processed for global fitting by Biacore Evaluation Software using 1:1 Langmuir binding model and dissociation constant KD (mol/1) was calculated from the resulting values.
T4 sequence (P08637 17-208): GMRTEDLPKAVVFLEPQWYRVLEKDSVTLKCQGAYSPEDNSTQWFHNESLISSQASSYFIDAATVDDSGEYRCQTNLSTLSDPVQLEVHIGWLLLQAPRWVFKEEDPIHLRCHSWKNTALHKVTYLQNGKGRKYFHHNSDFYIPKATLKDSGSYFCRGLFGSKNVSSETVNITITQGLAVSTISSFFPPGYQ

FcγRIIIa [4] = target: T4, FcγRIIIa; test: ratio of SPR KDs: KD of GpH7-G1d/GpL16-k0 divided by KD of this antibody
How it was run: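 Biacore SPR at 25 °C in HBS-EP+; antibodies captured on antigen peptide-immobilized CM5 or SA chips, FcγRIIIa flowed as analyte, regeneration with 10 mM glycine-HCl pH 1.5. KD from ka and kd by global 1:1 Langmuir fitting; values are the reference antibody's KD divided by this antibody's KD.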

FcγRIIIa [5] = target: T4, FcγRIIIa; test: ratio of SPR KDs: KD of GpH7-A5/GpH7-B3/GpL16-k0 divided by KD of this antibody
Method: The prepared antibodies were compared for the FcγRIIIa-binding activity using, as an indicator, KD for FcγRIIIa that was determined according to the method described in Reference Example 2.
as §1, §2

FcγRIIIa [6] = target: T4, FcγRIIIa; test: ratio of SPR KDs: KD of GpH7-TA7/GpH7-B78/GpL16-k0 divided by KD of this antibody; remark: listed apart in the source
From the text: First, it was considered which H chain should be introduced with Y296W. GpH7-TA52 (SEQ ID NO: 44) resulting from the introduction of the mutation Y296W into GpH7-TA7 was constructed, and expressed and prepared in combination with GpH7-B78 according to the method described in Reference Example 1. Furthermore, GpH7-TA58 (SEQ ID NO: 45) resulting from the introduction of Y296W into GpH7-B78 was constructed, and expressed and prepared in combination with GpH7-TA22 according to the method described in Reference Example 1. To assess the effects of combinations with Y296W, the prepared antibodies were compared for the FcγRIIIa-binding activity according to the method described in Reference Example 2 (Table 16).
as §1

FcγRIIIa [7] = target: T5, FcγRIIIa (human, UniProt P08637 17-208); test: SPR (Biacore); KD of GpH7-TA7/GpH7-B78/GpL16-k0 for FcγRIIIa divided by the KD of this antibody
T5 construct: extracellular domain; Soluble extracellular domain with a C-terminal His tag, expressed in FreeStyle293 cells and used as the analyte in Biacore; also called FcgRIIIa; CD16A; not shown: His tag attached to the C terminus
Method: Then, K334G was also assessed in the same manner. GpH7-TA40 (SEQ ID NO: 47) resulting from the introduction of K334G into GpH7-TA7 was constructed, and expressed and prepared in combination with GpH7-B78 according to the method described in Reference Example 1. Furthermore, GpH7-TA50 (SEQ ID NO: 48) resulting from the introduction of K334G into GpH7-B78 was constructed, and expressed and prepared in combination with GpH7-TA7 according to the method described in Reference Example 1. To assess the effect of combinations with K334G, the prepared antibodies were compared for the FcγRIIIa binding according to the method described in Reference Example 2 (Table 18).
as §1, with “To regenerate and repeatedly use the chip, the antibodies captured on the chip were washed off by reacting 10 mM glycine-HCl, pH 1.5.” left out
T5 sequence (P08637 17-208): as above

FcγRIIIa [8] = target: T4, FcγRIIIa; test: ratio of SPR KDs: KD of GpH7-TA22/GpH7-B78/GpL16-k0 divided by KD of this antibody
From the text: Then, GpH7-TA54 (SEQ ID NO: 46) resulting from the introduction of Y296W into GpH7-TA22 was constructed, and expressed and prepared in combination with GpH7-B78 according to the method described in Reference Example 1. Furthermore, GpH7-TA58 (SEQ ID NO: 45) resulting from the introduction of Y296W into GpH7-B78 was constructed, and expressed and prepared in combination with GpH7-TA22 according to the method described in Reference Example 1. To assess the effect of combination with Y296W, the prepared antibodies were compared for the FcγRIIIa-binding activity according to the method described in Reference Example 2 (Table 17).
as §1

B1: IL6R-BP253/IL6R-L (antibody, human IgG1, kappa)
heavy: QVQLQESGPGLVKPSETLSLTCAVSGHSISHDHAWSWVRQPPGEGLEWIGFISYSGITNYNPSLQGRVTISRDNSKNTLYLQMNSLRAEDTAVYYCARSLARTTAMDYWGEGTLVTVSSASTKGPSVFPLAPSSKSTSGGTAALGCLVKDYFPEPVTVSWNSGALTSGVHTFPAVLQSSGLYSLSSVVTVPSSSLGTQTYICNVNHKPSNTKVDKKVEPKSCDKTHTCPPCPAPELLGGPSVFLFPPKPKDTLMISRTPEVTCVVVDVEHEDPEVKFNWYVDGVEVHNAKTKPREEQYNSTYRVVSVLTVLHQDWLNGKEYKCKVSNKAFPAPIEKTISKAKGQPREPQVYTLPPSRDELTKNQVSLTCLVKGFYPSDIAVEWESNGQPENNYKTTPPVLDSDGSFFLYSKLTVDKSRWQQGNVFSCSVMHEALHNHYTQESLSLSP
light: not shown
notes: Homodimerized antibody
What does the source list for B1?
KD(IIaR)/KD(IIb) (FcgRIIb [1]): 0.3; Relative KD (KD of IL6R-B3/IL6R-L divided by KD of the variant) (FcgRIIb [2]): 349; Relative KD (KD of IL6R-B3/IL6R-L divided by KD of the variant) (FcgRIIaR): 480; Relative KD (KD of IL6R-B3/IL6R-L divided by KD of the variant) (FcgRIIaH): 0.9

B2: IL6R-AP002/IL6R-BP256/IL6R-L (antibody, human IgG1, kappa)
heavy 1: QVQLQESGPGLVKPSETLSLTCAVSGHSISHDHAWSWVRQPPGEGLEWIGFISYSGITNYNPSLQGRVTISRDNSKNTLYLQMNSLRAEDTAVYYCARSLARTTAMDYWGEGTLVTVSSASTKGPSVFPLAPSSKSTSGGTAALGCLVKDYFPEPVTVSWNSGALTSGVHTFPAVLQSSGLYSLSSVVTVPSSSLGTQTYICNVNHKPSNTKVDKKVEPKSCDKTHTCPPCPAPDLLGDDSVFLFPPKPKDTLMISRTPEVTCVVVDVSDEDGEVKFNWYVDGVEVHNAKTKPREEQYNSTYRVVSVLTVLHQDWLNGKEYKCKVSNKALPRPIEKTISKAKGQPREPQVYTLPPSRKELTKNQVSLTCLVKGFYPSDIAVEWESNGQPENNYKTTPPVLDSDGSFFLYSKLTVDKSRWQQGNVFSCSVMHEALHNRYTQKSLSLSP
heavy 2: B2 heavy 1 with S241D, K358D, R437H, K441E
light: not shown
notes: Heterodimerized antibody (two different H chains, same variable region), S239D in one H chain only
Which “KD(IIaR)/KD(IIb)” value (FcgRIIb [1]) does the source give for B2 here?
The value was 34.3.

And the “Relative KD (KD of IL6R-B3/IL6R-L divided by KD of the variant)” value (FcgRIIb [2])?
The value was 752.

And the “Relative KD (KD of IL6R-B3/IL6R-L divided by KD of the variant)” value (FcgRIIaR)?
The value was 7.7.

What about the “Relative KD (KD of IL6R-B3/IL6R-L divided by KD of the variant)” value (FcgRIIaH) of the same binder?
Its value is 0.2.

B3: IL6R-AP002/IL6R-BP257/IL6R-L (antibody, human IgG1, kappa)
heavy 1: B2 heavy 1
heavy 2: B2 heavy 1 with S241E, K358D, R437H, K441E
light: not shown
notes: Heterodimerized antibody (two different H chains, same variable region), S239E in one H chain only
What does the source list for B3?
KD(IIaR)/KD(IIb) (FcgRIIb [1]): 27.7; Relative KD (KD of IL6R-B3/IL6R-L divided by KD of the variant) (FcgRIIb [2]): 657; Relative KD (KD of IL6R-B3/IL6R-L divided by KD of the variant) (FcgRIIaR): 8.3; Relative KD (KD of IL6R-B3/IL6R-L divided by KD of the variant) (FcgRIIaH): 0.2

B4: GpH7-TA7/GpH7-B78/GpL16-k0 (antibody, human IgG1, kappa)
heavy 1: QVQLVQSGAEVKKPGASVTVSCKASGYTFTDYEMHWIRQPPGEGLEWIGAIDPKTGDTAYSESFQDRVTLTADKSTSTAYMELSSLTSEDTAVYYCTRFYSYTYWGQGTLVTVSSASTKGPSVFPLAPSSKSTSGGTAALGCLVKDYFPEPVTVSWNSGALTSGVHTFPAVLQSSGLYSLSSVVTVPSSSLGTQTYICNVNHKPSNTKVDKKVEPKSCDKTHTCPPCPAPEYLWGPSVFLFPPKPKDTLMISRTPEVTCVVVDVSHEDPEVKFNWYVDGVEVHNAKTKPREEQYNATYRVVSVLTVLHQDWLNGKEYKCKVSNKALPAPIEKTISKAKGQPREPQVYTLPPSRKELTKNQVSLTCLVKGFYPSDIAVEWESNGQPENNYKTTPPVLDSDGSFFLYSKLTVDKSRWQQGNVFSCSVMHEALHNRYTQKSLSLSP
heavy 2: B4 heavy 1 with Y232L, W234G, S237D, A296S, A328L, I330E, K354D, R433H, K437E
light: DIVMTQSPLSLPVTPGEPASISCQASESLVHSNRNTYLHWYLQKPGQSPQLLIYKVSNRFSGVPDRFSGSGSGTDFTLKISRVEAEDVGVYYCSQNTHVPPTFGQGTKVEIERTVAAPSVFIFPPSDEQLKSGTASVVCLLNNFYPREAKVQWKVDNALQSGNSQESVTEQDSKDSTYSLSSTLTLSKADYEKHKVYACEVTHQGLSSPVTKSFNRGEC
notes: Anti-glypican-3 IgG1 heterodimer; L234Y/G236W/S298A in H1, S239D/A330L/I332E in H2
B4 was tested. Which KD ratio (FcγRIIIa [3]) did it give?
The KD ratio was 1 fold.

What about the “KD ratio 1” value (FcγRIIIa [4]) of the same binder?
The value was 261 fold.

What about the “KD ratio 2” value (FcγRIIIa [5]) of the same binder?
The value was 347 fold.

What about the KD ratio (FcγRIIIa [6]) of the same binder?
Its KD ratio is 1 fold.

B5: GpH7-TA7/GpH7-TA50/GpL16-k0 (antibody, human IgG1, kappa)
heavy 1: B4 heavy 1
heavy 2: B4 heavy 1 with Y232L, W234G, S237D, A296S, A328L, I330E, K332G, K354D, R433H, K437E
light: B4 light
notes: Heterodimerized anti-glypican-3 IgG1 antibody; K334G is in the H chain other than the one with L234Y/G236W/S298A; also called TA7/TA50
B5 was tested. Which KD ratio (FcγRIIIa [7]) did it give?
Its KD ratio is 1.2.

B6: GpH7-TA22/GpH7-B78/GpL16-k0 (antibody, human IgG1, kappa)
heavy 1: B4 heavy 1 with S237D
heavy 2: B4 heavy 1 with Y232L, W234G, S237D, A296S, A328L, I330E, K354D, R433H, K437E
light: B4 light
notes: Anti-glypican-3 IgG1 heterodimer; L234Y/G236W/S239D/S298A in H1, S239D/A330L/I332E in H2
How did the KD ratio (FcγRIIIa [3]) turn out when B6 was run?
Its KD ratio is 3.2 fold.

What about the KD ratio (FcγRIIIa [8]) of the same binder?
The KD ratio was 1 fold.
